Data: patent US20240076396A1 (Regeneron, published 2024)

T1: hGITR.mFc (dimeric recombinant human GITR ectodomain protein, mouse Fc fusion) (human)
T1 construct: also called dimeric human GITR; dimeric GITR
T1 chain: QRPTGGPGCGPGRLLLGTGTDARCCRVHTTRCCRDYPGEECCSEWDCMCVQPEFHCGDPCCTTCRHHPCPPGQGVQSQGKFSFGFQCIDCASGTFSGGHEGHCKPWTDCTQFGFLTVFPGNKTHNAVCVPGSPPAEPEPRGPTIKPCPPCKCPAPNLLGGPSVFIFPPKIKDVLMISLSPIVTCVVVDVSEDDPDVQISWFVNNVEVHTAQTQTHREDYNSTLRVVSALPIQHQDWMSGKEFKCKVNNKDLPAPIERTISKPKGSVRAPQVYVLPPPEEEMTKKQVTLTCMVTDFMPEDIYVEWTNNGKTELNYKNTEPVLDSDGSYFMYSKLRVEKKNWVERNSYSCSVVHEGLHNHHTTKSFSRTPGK

B1: hGITR.mmH (soluble monomeric recombinant human GITR ectodomain protein) (receptor)
chain: QRPTGGPGCGPGRLLLGTGTDARCCRVHTTRCCRDYPGEECCSEWDCMCVQPEFHCGDPCCTTCRHHPCPPGQGVQSQGKFSFGFQCIDCASGTFSGGHEGHCKPWTDCTQFGFLTVFPGNKTHNAVCVPGSPPAEPEQKLISEEDLGGEQKLISEEDLHHHHHH
notes: also called monomeric human GITR
B2: CompAb1 heavy chain variant N101F (antibody, human IgG1, V domains shown)
VH: QVQLQESGPGLVKPSETLSLTCIVSGGSISGYFWNWIRQPPGKGLEWIGYIYYSGTTIYNPSLKSRFTISLDTSKNQFSLKLTSVTAADTAVYYCARESYFPSPRYFDHWGQGTLVTVSS
VL: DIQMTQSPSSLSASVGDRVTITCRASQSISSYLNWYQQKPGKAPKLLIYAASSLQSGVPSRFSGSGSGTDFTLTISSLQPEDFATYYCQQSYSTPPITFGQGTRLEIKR
notes: human IgG1 constant region; tested as CHOt supernatant; also called Sample Number 5
B3: CompAb1 heavy chain variant N101W (antibody, human IgG1, V domains shown)
VH: QVQLQESGPGLVKPSETLSLTCIVSGGSISGYFWNWIRQPPGKGLEWIGYIYYSGTTIYNPSLKSRFTISLDTSKNQFSLKLTSVTAADTAVYYCARESYWPSPRYFDHWGQGTLVTVSS
VL: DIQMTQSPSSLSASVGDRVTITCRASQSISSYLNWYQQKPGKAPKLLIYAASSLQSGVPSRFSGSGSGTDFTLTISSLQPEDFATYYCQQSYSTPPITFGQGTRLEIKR
notes: human IgG1 constant region; tested as CHOt supernatant; also called Sample Number 18
B4: CompAb1 heavy chain variant N101Y (antibody, human IgG1, V domains shown)
VH: QVQLQESGPGLVKPSETLSLTCIVSGGSISGYFWNWIRQPPGKGLEWIGYIYYSGTTIYNPSLKSRFTISLDTSKNQFSLKLTSVTAADTAVYYCARESYYPSPRYFDHWGQGTLVTVSS
VL: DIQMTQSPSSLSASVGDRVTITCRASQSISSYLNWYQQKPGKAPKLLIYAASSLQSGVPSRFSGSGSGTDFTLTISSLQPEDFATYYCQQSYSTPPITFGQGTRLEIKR
notes: human IgG1 constant region; tested as CHOt supernatant; also called Sample Number 19
B5: CompAb1 heavy chain variant N101H (antibody, human IgG1, V domains shown)
VH: QVQLQESGPGLVKPSETLSLTCIVSGGSISGYFWNWIRQPPGKGLEWIGYIYYSGTTIYNPSLKSRFTISLDTSKNQFSLKLTSVTAADTAVYYCARESYHPSPRYFDHWGQGTLVTVSS
VL: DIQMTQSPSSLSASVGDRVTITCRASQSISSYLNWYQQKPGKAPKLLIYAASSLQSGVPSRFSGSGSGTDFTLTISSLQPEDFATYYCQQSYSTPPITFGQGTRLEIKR
notes: human IgG1 constant region; tested as CHOt supernatant; also called Sample Number 7
B6: CompAb1 heavy chain variant N101P (antibody, human IgG1, V domains shown)
VH: QVQLQESGPGLVKPSETLSLTCIVSGGSISGYFWNWIRQPPGKGLEWIGYIYYSGTTIYNPSLKSRFTISLDTSKNQFSLKLTSVTAADTAVYYCARESYPPSPRYFDHWGQGTLVTVSS
VL: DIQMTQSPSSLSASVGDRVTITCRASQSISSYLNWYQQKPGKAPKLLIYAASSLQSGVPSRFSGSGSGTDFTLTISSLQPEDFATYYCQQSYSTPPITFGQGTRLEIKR
notes: human IgG1 constant region; tested as CHOt supernatant; also called Sample Number 12
B7: CompAb1 heavy chain variant S103R (antibody, human IgG1, V domains shown)
VH: QVQLQESGPGLVKPSETLSLTCIVSGGSISGYFWNWIRQPPGKGLEWIGYIYYSGTTIYNPSLKSRFTISLDTSKNQFSLKLTSVTAADTAVYYCARESYNPRPRYFDHWGQGTLVTVSS
VL: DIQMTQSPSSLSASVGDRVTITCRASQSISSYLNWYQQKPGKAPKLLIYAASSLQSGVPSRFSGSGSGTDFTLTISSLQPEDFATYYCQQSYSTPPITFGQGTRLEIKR
notes: human IgG1 constant region; tested as CHOt supernatant; also called Sample Number 33

Columns and labels:
[1] = target: human GITR-L (6His.GCN4.G4Sx3.hGITR-L) (human, UniProt Q9UNG2 52-177); assay: ELISA: hGITR.mmH (3.4 pM to 200 nM) on plate-coated hGITR-L, anti-cMyc-HRP detection
Protocol: FIG. 13 depicts effects of anti-GITR antibody on human GITR binding to human GITR-L. Binding of human GITR protein, hGITR.mmH, at a range of concentrations (3.4 pM to 200 nM) to immobilized human GITR-L was evaluated by ELISA and EC₅₀ values for binding were determined. A fixed concentration of recombinant hGITR.mmH (1.5 nM), based on the EC₅₀ values calculated for binding to hGITR-L, was pre-incubated with mAb1, or an IgG1 isotype control at a range of concentrations (51 pM to 3 μM) and added to wells containing immobilized human GITR-L to determine the ability of the antibodies to block hGITR.mmH binding to immobilized human GITR-L. Binding of hGITR.mmH was detected with an HRP-conjugated cMyc antibody using TMB substrate, and the OD₄₅₀ was measured by spectrophotometry.
The binding of recombinant hGITR to its ligand, hGITR-L, was determined using an enzyme-linked immunosorbent assay (ELISA)-based binding assay. […] Plate-bound hGITR.mmH was detected with horseradish peroxidase (HRP) conjugated goat anti-cMyc antibody at 0.33 μg/ml and visualized using the colorimetric HRP substrate 3-3′, 5-5′-tetramethylbenzidine (TMB) according to the manufacturer's recommended procedures. Absorbance data at 450 nm (OD₄₅₀) were plotted as a function of the concentration of recombinant hGITR.mmH. […]

[2] = target: B1; assay: SPR Biacore 2000 25C; CHOt supernatant antibody captured on anti-human Fc
Protocol: (§1) Biacore experiments for antibodies secreted in conditioned culture medium were performed as follows. Using a Biacore 2000 instrument at 25° C., antibodies were captured for 80 seconds at a flow rate of 8 uL/min on a CM5 anti-humanFc-coupled surface. Approximately 1000-2000 RU of each antibody were captured. 100 nM hGITR.mmH (soluble monomeric hGITR, SEQ ID NO: 45) or 50 nM hGITR.mFc (dimeric Macaca fasicularis GITR, SEQ ID NO: 46) were injected over this surface for 2 minutes at a flow rate of 50 uL/min. Dissociation was measured for 2 minutes. The KD and t_{1/2} were calculated by fitting the double-referenced sensorgrams to a 1:1 binding model.

[3] = target: T1, hGITR.mFc (dimeric recombinant human …); assay: as above
Protocol: as §1

[4] = target: T1, hGITR.mFc (dimeric recombinant human …); assay: SPR Biacore 2000 25C; CHOt supernatant antibody captured on anti-human Fc; 50 nM hGITR.mFc
Protocol: as §1

human GITR-L (6His.GCN4.G4Sx3.hGITR-L), sequence (Q9UNG2 52-177): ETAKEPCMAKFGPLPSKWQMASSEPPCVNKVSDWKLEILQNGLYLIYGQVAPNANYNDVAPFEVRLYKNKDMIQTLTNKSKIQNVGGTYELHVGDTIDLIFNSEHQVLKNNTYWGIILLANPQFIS

Row | Binder | EC50 [1] [nM] | binding result [2] | binding result [3] | Kd [4] [nM] | t1/2 [4] [min]
1 | B1 | 2.05 | – | – | – | –
2 | B2 | – | no binding (tested: 100 nM hGITR.mmH) | no binding (tested: 50 nM hGITR.mFc) | – | –
3 | B3 | – | no binding (tested: 100 nM hGITR.mmH) | no binding (tested: 50 nM hGITR.mFc) | – | –
4 | B4 | – | no binding (tested: 100 nM hGITR.mmH) | no binding (tested: 50 nM hGITR.mFc) | – | –
5 | B5 | – | no binding (tested: 100 nM hGITR.mmH) | no binding (tested: 50 nM hGITR.mFc) | – | –
6 | B6 | – | no binding (tested: 100 nM hGITR.mmH) | no binding (tested: 50 nM hGITR.mFc) | – | –
7 | B7 | – | no binding (tested: 100 nM hGITR.mmH) | – | 45.6 | 0.75
